Data on 17 molecules can be found in US20210398607A1, “METHODS FOR DESIGNING ANTIBODY SMALL-MOLECULE CONJUGATES” (priority 2020, published 2021).

Changes are numbered by the printed parent chain. Names may count otherwise. “Also recorded” adds a separate entry of the source.

To fix the notation:
B1: 4NBX.B-biotin103 v186 (VHH)
VHH: QVQLQESGGGLAQAGGSLRLSCAASGRTFSRSPMAWFRQPPGKEREFVAAGSSTGTTTYYADSVKGRFTISRDNAKNTVYLQMNSLKPEDTAVYYCAAAPLGCARKFAESAYWGQGTQVTVSS
B2: 4NBX.B-biotin103 v186_Fr -1 (VHH)
VHH: B1 VHH with A12V, F37Y, G102C, C103A
notes: also called -1 variant of 4NBX.B-biotin103 v186_Fr
B3: 4NBX.B-biotin103 v186_Fr +1 (VHH)
VHH: B1 VHH with A12V, F37Y, C103A, A104C
notes: also called +1 variant of 4NBX.B-biotin103 v186_Fr
B4: mSA (monomeric streptavidin construct), wild type (other)
chain: HHHHHHSQDLASAEAGITGTWYNQSGSTFTVTAGADGNLTGQYENRAQGTGCQNSPYTLTGRYNGTKLEWRVEWNNSTENCHSRTEWRGQYQGGAEARINTQWNLTYEGGSGPATEQGQDTFTKVKPSAASGSDYKDDDDK
notes: also called mSAWT
B5: 4NBX.B-biotin103 v186: v149 plus Y101L/R107F/R56T/Y106K/D108A/Y110S, SEQ ID NO:5; the WT line of Table 2 (conjugate)
VHH: QVQLQESGGGLAQAGGSLRLSCAASGRTFSRSPMAWFRQPPGKEREFVAAGSSTGTTTYYADSVKGRFTISRDNAKNTVYLQMNSLKPEDTAVYYCAAAPLGCARKFAESAYWGQGTQVTVSSHHHHHH
B6: 4NBX.B-biotin103 v186_Fr − 1: v186_Fr with biotin103 moved to −1 position on CDR3, SEQ ID NO:8 (conjugate)
VHH: B5 VHH with A12V, F37Y, G102C, C103A
modifications: biotin conjugated; 4NBX.B-biotin103 v186_Fr -1
B7: 4NBX.B-biotin103 v186_Fr: v186 plus framework mutations A12V/F37Y, SEQ ID NO:6 (conjugate)
VHH: B5 VHH with A12V, F37Y
B8: 4NBX.B-biotin103 v186_Fr + 1: v186_Fr with biotin103 moved to +1 position on CDR3, SEQ ID NO:7 (conjugate)
VHH: B5 VHH with A12V, F37Y, C103A, A104C
modifications: biotin conjugated; 4NBX.B-biotin103 v186_Fr +1
B9: Wildtype 4NBX.B: nanobody scaffold, chain B of PDB structure 4NBX, SEQ ID NO:1, unconjugated (protein)
VHH: QVQLQESGGGLAQAGGSLRLSCAASGRTFSMDPMAWFRQPPGKEREFVAAGSSTGRTTYYADSVKGRFTISRDNAKNTVYLQMNSLKPEDTAVYYCAAAPYGANWYRDEYAYWGQGTQVTVSSHHHHHH
modifications: 4NBX.B-WT
B10: 4NBX.B-biotin103 v149: 4NBX.B-biotin103 with M31R/D32S/N104A/W105R, SEQ ID NO:4; the WT line of Table 3 (conjugate)
VHH: B9 VHH with M31R, D32S, A103C, N104A, W105R
B11: 4NBX.B-biotin103: nanobody 4NBX.B A103C (SEQ ID NO:2) conjugated with biotin C2 maleimide at site 103 (conjugate)
VHH: B9 VHH with A103C
B12: 4NBX.B-biotin103 v119: 4NBX.B-biotin103 with M31H/D32A/N104S/W105H, SEQ ID NO:3 (conjugate)
VHH: B9 VHH with M31H, D32A, A103C, N104S, W105H
B13: 2X89.A-CCAA-biotin57 v5: final variant of 2X89.A-CCAA-biotin57 that accumulated 18 mutations, SEQ ID NO:14 (conjugate)
VHH: QVQLQESGGGLVQAGGSLRLSCAASGYTSSQYAMGWYRQAPGKEREWVATISAGADCTYYADSVKGRFTFSQDNAKNTVYLQMDSLKPEDTAVYYCATDSPLQATLITAKGGKGFQYWGQGTQVTVSSHHHHHH
B14: 2X89.A-CCAA-biotin57 v42 (VHH)
VHH: QVQLQESGGGLVQAGGSLRLSCAASGYTDSQYAMGWYRQAPGKEREWVATISAGRDCTYYADSVKGRFTFSQDNAKNTVYLQMDSLKPEDTAVYYCATDIPLQATLITAKGGKGFQYWGQGTQVTVSS
B15: 2X89.A-CCAA-biotin57 v37 (VHH)
VHH: B14 VHH with Q31R, T50R, K113D, Q116R
B16: 2X89.A-CCAA-biotin57 v20 (VHH)
VHH: B14 VHH with D29S, I100S
B17: 2X89.A-CCAA-biotin57: nanobody 2X89.A, intra-CDR disulfide replaced by two alanines, biotin conjugated to site 57, SEQ ID NO:10 (conjugate)
VHH: QVQLQESGGGSVQAGGSLRLSCAASGYTDSRYAMAWFRQAPGKEREWVARINSGRDCTYYADSVKGRFTFSQDNAKNTVYLQMDSLEPEDTATYYCATDIPLRARDIVAKGGDGFRYWGQGTQVTVSSHHHHHH

The target in data set [1] is B4. Nature of the data set: SPR, conjugate injected at 0.5, 1, 2.5, 5, 10 nM over immobilized mSAWT; fit curve.
The target in data set [2] is B4. Put plainly: SPR, single-cycle injections of 1, 2.5, 5, 10 and 20 nM conjugate over immobilized mSAWT; fit curve.
Data set [3] has as its target B4. Nature of the data set: SPR. Background: In SPR one partner is held on a chip, and binding of the other changes the refractive index at the surface.
For data set [4], the target named is B4. Put plainly: SPR, single-cycle injections of 1, 2.5, 5, 10 and 20 nM conjugate over immobilized mSAWT; fit curve.
Data set [5] concerns the target T1, N-terminal biotinylated Smt3 SUMO protein (UniProt Q12306 2-98 = SUMO). Put plainly: SPR, Biotin_SUMO injected at 2.5, 10, 20, 50, 80 nM over immobilized mSAWT; fit curve; replicate 2.
The target in data set [6] is T1, N-terminal biotinylated Smt3 SUMO …. Put plainly: SPR, Biotin_SUMO injected at 2.5, 10, 20, 50, 80 nM over immobilized mSAWT; fit curve; replicate 3.
Data set [7] has the same target. Nature of the data set: SPR, Biotin_SUMO injected at 2.5, 10, 20, 50, 80 nM over immobilized mSAWT; fit curve; one of three replicates.
Data set [8] addresses mSA (monomeric streptavidin, mSAWT) (Streptomyces avidinii; Rhizobium etli, UniProt P22629+Q8KKW2). Nature of the data set: SPR binding against mSAWT. Conditions: for koff / dissociation rate, in words: mSAWT. An excerpt: Smt3 SUMO protein has an unstructured N-terminus and it was hypothesized this would minimize the interaction between the protein components.
The conditions of data set [9]: for aggregation / monomer stability on SEC: SEC traces. As for the experimental part: Two additional rounds of CDR residue mutability analysis were performed followed by in-parallel combinatorial designs on v149 until no further CDR mutations were predicted to be energetically favorable. Mutations accumulated in previous rounds of design were kept intact in subsequent rounds.

For data set [10], the target named is B4. Nature of the data set: SPR, single-cycle injections of 2.5, 5, 10, 20 and 50 nM conjugate; target mSAWT by the text, not printed on the sheet; fit curve.
The target in data set [11] is B4. The data set is described as above.

What is called Kd is the constant that tells how readily two partners part at equilibrium. The low end stands for higher affinity, the high end for lower affinity. Broadly, the koff is the rate constant with which the complex falls apart. A high value points to fast dissociation. By kon is commonly meant the second-order rate constant of association. A lower kon goes with slow association. In data set [1], B1 came in with a Kd of 0.33 nM, a koff of 0.00106 s⁻¹ and a kon of 3.23e+06 M⁻¹ s⁻¹.

In data set [2], B2 returned a Kd of 0.32 nM, a koff of 0.000986 s⁻¹ and a kon of 3.13e+06 M⁻¹ s⁻¹.

Regarding B3, the “fold weaker binding than the -1 variant” value in data set [3] is ~2 fold. In [4], the Kd was 0.64 nM, the koff amounted to 0.00138 s⁻¹ and the kon came to 2.14e+06 M⁻¹ s⁻¹.

In [5], B4 had a Kd of 10.5 nM, a koff of 0.00372 s⁻¹ and a kon of 360000 M⁻¹ s⁻¹. For the same molecule, in data set [6], the Kd turned out to be 10.4 nM, the koff was determined as 0.00366 s⁻¹ and the kon stood at 350000 M⁻¹ s⁻¹. In [7], this molecule displayed a Kd of 7.85 nM, a koff of 0.00334 s⁻¹ and a kon of 430000 M⁻¹ s⁻¹.

Regarding B5, in [8], the “KD / measured affinity against mSAWT, comparison in words” value (shortened to “KD / measured affinity against mSAWT”) is on record as “very similar KD as v149”. For the same molecule, the “aggregation / monomer stability on SEC” value in data set [9] is “even worse aggregates formation than v149”.

For B6, in [8], the “KD / measured affinity against mSAWT” value is “minimally different from the wildtype v186_Fr”.

As for B7, in data set [9], the “aggregation / monomer stability on SEC” value is on record as “significantly reduced aggregation”. The “re-aggregation of collected fractions excluding the aggregates peak” value in data set [9] (rerun on SEC) is recorded as “did not re-aggregate”.

Consider B8, for which, in data set [8], the “KD / measured affinity against mSAWT” value is given as “minimally different from the wildtype v186_Fr”.

As to B9, in [8] (concentrations up to 100 nM), the “binding signal to mSA” value is “did not show binding signal”.

Turning to B10, in [9], the “aggregation / monomer stability on SEC” value is listed as “very prone to aggregation”.

As for B11, in [9], the “aggregation / monomer stability on SEC” value was “single peaks”.

In the case of B12, the “koff / dissociation rate, in words” value in data set [8] was “only minimally different”. Also, the “aggregation / monomer stability on SEC” value in data set [9] is listed as “single peaks”.

Consider B13, for which the “koff / dissociation rate, in words” value in data set [8] is listed as “relatively preserved”. For the same molecule, the “aggregation / monomer stability on SEC” value in data set [9] was “eventually better than the 2X89.A-CCAA-biotin57 parent conjugate”.

In [10], B14 displayed a Kd of 3.32 nM, a koff of 0.00178 s⁻¹ and a kon of 540000 M⁻¹ s⁻¹.

In the case of B15, in data set [3], the binding result is given as “binds”.

In [11], B16 had a Kd of 3.28 nM, a koff of 0.00183 s⁻¹ and a kon of 560000 M⁻¹ s⁻¹.

For the molecule B17, the “koff / dissociation rate, in words” value in data set [8] was “especially slow dissociation rate; also recorded: slightly better than the best designed 4NBX.B variant v186_Fr”. Moreover, in [9], the “aggregation / monomer stability on SEC” value is “aggregated obviously”.
